Experiments:
Ssd1 ΔN338 [1] = target: T1, Ssd1 ΔN338 (Saccharomyces cerevisiae (S288C/BY4741 …, UniProt P24276 339-1250)); assay: fluorescence anisotropy; Anisotropy: 20 nM RNA, 20 mM HEPES pH 7.5, 150 mM NaCl, 1 mM DTT, 0.01% Tween 20, 15 and 30 min on ice; EMSA: 0.5 uM RNA, 20 mM HEPES pH 7.5, 150 mM K acetate; settings: protein: recombinant, tags: His tag cleaved with 3C protease
T1 sequence: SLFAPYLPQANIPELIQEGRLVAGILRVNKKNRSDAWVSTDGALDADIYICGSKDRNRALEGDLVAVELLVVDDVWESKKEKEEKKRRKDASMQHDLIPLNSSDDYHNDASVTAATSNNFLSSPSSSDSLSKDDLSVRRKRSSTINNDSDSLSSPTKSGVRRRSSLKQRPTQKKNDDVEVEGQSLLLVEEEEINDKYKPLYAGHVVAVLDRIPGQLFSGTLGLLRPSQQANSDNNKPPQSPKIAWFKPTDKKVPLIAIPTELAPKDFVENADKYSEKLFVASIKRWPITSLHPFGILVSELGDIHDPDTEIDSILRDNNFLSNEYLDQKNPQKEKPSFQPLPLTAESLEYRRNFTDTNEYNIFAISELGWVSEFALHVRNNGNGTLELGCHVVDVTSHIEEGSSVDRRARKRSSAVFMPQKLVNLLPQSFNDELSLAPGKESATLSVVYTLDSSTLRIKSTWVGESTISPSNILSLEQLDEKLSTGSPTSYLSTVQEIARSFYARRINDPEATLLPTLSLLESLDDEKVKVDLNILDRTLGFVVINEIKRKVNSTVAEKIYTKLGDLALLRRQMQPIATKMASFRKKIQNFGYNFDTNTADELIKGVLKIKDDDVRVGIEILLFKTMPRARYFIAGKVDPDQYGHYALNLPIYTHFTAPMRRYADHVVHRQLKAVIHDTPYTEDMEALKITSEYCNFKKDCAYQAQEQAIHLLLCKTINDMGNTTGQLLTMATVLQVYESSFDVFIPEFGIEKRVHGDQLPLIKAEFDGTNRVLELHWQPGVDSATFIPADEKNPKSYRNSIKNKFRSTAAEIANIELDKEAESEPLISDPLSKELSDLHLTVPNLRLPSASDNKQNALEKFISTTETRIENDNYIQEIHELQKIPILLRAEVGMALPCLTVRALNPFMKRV

Ssd1 ΔN338 [2] = target: T1, Ssd1 ΔN338; assay: EMSA; 5 mM Mg acetate; no significant binding; Anisotropy: 20 nM RNA, 20 mM HEPES pH 7.5, 150 mM NaCl, 1 mM DTT, 0.01% Tween 20, 15 and 30 min on ice; EMSA: 0.5 uM RNA, 20 mM HEPES pH 7.5, 150 mM K acetate; settings: protein: recombinant; tags: His tag cleaved with 3C protease; label: 5'-DY681
Ssd1 ΔN338 [3] = target: T1, Ssd1 ΔN338; assay: fluorescence anisotropy; Anisotropy: 20 nM RNA, 20 mM HEPES pH 7.5, 150 mM NaCl, 1 mM DTT, 0.01% Tween 20, 15 and 30 min on ice; EMSA: 0.5 uM RNA, 20 mM HEPES pH 7.5, 150 mM K acetate; settings: protein: recombinant; tags: His tag cleaved with 3C protease; label: 5'-Cy3

CUUCCAACUAAUUUUCACUCCUUUAA (ssRNA) [DUO-25mer] showed a Kd (Ssd1 ΔN338 [1]; label: 5'-Cy3 (anisotropy)) of 8 nM.

For CAACUAAUUUUCACUCCUUUAA (ssRNA) [DUO-21mer], the Kd (Ssd1 ΔN338 [1]; label: 5'-Cy3) was 36 nM.

AGAACUCUUCCAACUA (ssRNA) [CCACCU-16mer (CCAACU motif)]: no binding (Ssd1 ΔN338 [2]).

For ACUAAUUUUCACUCCUUUAA (ssRNA) [DUO-19mer], the Kd (Ssd1 ΔN338 [1]; label: 5'-Cy3) was 42 nM.

Work on UAAUUUUCACUCCUUUAA (ssRNA) [DUO-17mer] yielded a Kd (Ssd1 ΔN338 [1]; label: 5'-Cy3) of 124 nM.

In the case of AUUUUCACUCCUUUAA (ssRNA) [SEE-15mer], the Kd (Ssd1 ΔN338 [1]; label: 5'-DY681 (EMSA), 5'-Cy3 (anisotropy)) is reported as 166 nM.

Work on CUUCCAACUAAUUUUUAUCCCUCUAA (ssRNA) [SUN4-DUO_Mut2] yielded a Kd (Ssd1 ΔN338 [1]; label: 5'-Cy3) of 104 nM.

For CUUCCGGCUAAUUUUCACUCCUUUAA (ssRNA) [SUN4-DUO_Mut1], the binding signal (Ssd1 ΔN338 [3]) was ~2 fold reduction in affinity vs DUO-25mer.

In the case of CUUCCGGCUAAUUUUUAUCCCUCUAA (ssRNA) [SUN4-DUO_Mut3], the binding signal (Ssd1 ΔN338 [3]) is reported as ~10 fold further loss of affinity (vs Mut2).
